Data on 71 variants can be found in the Human Domainome abundance scans (Beltran et al. 2025).

B1: Retinoic acid receptor beta, residues 85 to 161; numbered along this chain, P10826 (parent)
chain: YKPCFVCQDKSSGYHYGVSACEGCKGFFRRSIQKNMIYTCHRDKNCVINKVTRNRCQYCRLQKCFEVGMSKESVRND

± gives the uncertainty stated by the source.

The variants in this data set derive from B1. Kind of data set: abundance fitness (aPCA) (normalised: wild type 0, dead -1); higher = more abundant; growth selection in yeast, the domain comes from the species named. Particulars: Homo sapiens.
With YKPCFVCQDKSSGYHYGVSACEGCKGFFRRSIQKNMIYTCHRDKNCVINKVTRNRCQYCRDQKCFEVGMSKESVRND, the abundance fitness is -0.516 ± 0.14.

Regarding YKPCFVCQDKSSGYHYGVSACEGCKGFFRRSIQKNMIYTCHRDKNCVINKVTRNRCQYCRRQKCFEVGMSKESVRND, the abundance fitness is -0.8 ± 0.086. With YKPCFVCQDKSSGYHYGVSACEGCKGFFRRSIQKNMIYTCHRDKNCVINKVTRNRCQYCRIQKCFEVGMSKESVRND the figure was -0.207 ± 0.087; with YKPCFVCQDKSSGYHYGVSACEGCKGFFRRSIQKNMIYTCHRDKNCVINKVTRNRCQYCRHQKCFEVGMSKESVRND, -0.503 ± 0.33; with YKPCFVCQDKSSGYHYGVSACEGCKGFFRRSIQKNMIYTCHRDKNCVINKVTRNRCQYCREQKCFEVGMSKESVRND, -0.635 ± 0.083. With YKPCFVCQDKSSGYHYGVSACEGCKGFFRRSIQKNMIYTCHRDKNCVINKVTRNRCQYCRYQKCFEVGMSKESVRND the figure was -0.181 ± 0.098; with YKPCFVCQDKSSGYHYGVSACEGCKGFFRRSIQKNMIYTCHRDKNCVINKVTRNRCQYCRAQKCFEVGMSKESVRND, -0.591 ± 0.077. As for YKPCFVCQDKSSGYHYGVSACEGCKGFFRRSIQKNMIYTCHRDKNCVINKVTRNRCQYCRGQKCFEVGMSKESVRND, the abundance fitness is -0.605 ± 0.069. In the case of YKPCFVCQDKSSGYHYGVSACEGCKGFFRRSIQKNMIYTCHRDKNCVINKVTRNRCQYCRVQKCFEVGMSKESVRND, the abundance fitness is -0.499 ± 0.059. Turning to YKPCFVCQDKSSGYHYGVSACEGCKGFFRRSIQKNMIYTCHRDKNCVINKVTRNRCQYCRKQKCFEVGMSKESVRND, the abundance fitness was -0.946 ± 0.2.

Turning to YKPCFVCQDKSSGYHYGVSACEGCKGFFRRSIQKNMIYTCHRDKNCVINKVTRNRCQYCRFQKCFEVGMSKESVRND, the abundance fitness is -0.13 ± 0.083. With YKPCFVCQDKSSGYHYGVSACEGCKGFFRRSIQKNMIYTCHRDKNCVINKVTRNRCQYCRWQKCFEVGMSKESVRND the figure was -0.605 ± 0.078; with YKPCFVCQDKSSGYHYGVSACEGCKGFFRRSIQKNMIYTCHRDKNCVINKVTRNRCQYCRSQKCFEVGMSKESVRND, -0.995 ± 0.15; with YKPCFVCQDKSSGYHYGVSACEGCKGFFRRSIQKNMIYTCHRDKNCVINKVTRNRCQYCRMQKCFEVGMSKESVRND, -0.023 ± 0.045.

Take YKPCFVCQDKSSGYHYGVSACEGCKGFFRRSIQKNMIYTCHRDKNCVINKVTRNRCQYCRPQKCFEVGMSKESVRND: the abundance fitness is -0.754 ± 0.19.

Consider YKPCFVCQDKSSGYHYGVSACEGCKGFFRRSIQKNMIYTCHRDKNCVINKVTRNRCQYCRQQKCFEVGMSKESVRND, for which the abundance fitness was -0.336 ± 0.088. Turning to YKPCFVCQDKSSGYHYGVSACEGCKGFFRRSIQKNMIYTCHRDKNCVINKVTRNRCQYCRCQKCFEVGMSKESVRND, the abundance fitness was -0.657 ± 0.16.

For the variant YKPCFVCQDKSSGYHYGVSACEGCKGFFRRSIQKNMIYTCHRDKNCVINKVTRNRCQYCRLQGCFEVGMSKESVRND, the abundance fitness was -0.525 ± 0.044.

Turning to YKPCFVCQDKSSGYHYGVSACEGCKGFFRRSIQKNMIYTCHRDKNCVINKVTRNRCQYCRLQLCFEVGMSKESVRND, the abundance fitness is -0.272 ± 0.059. With YKPCFVCQDKSSGYHYGVSACEGCKGFFRRSIQKNMIYTCHRDKNCVINKVTRNRCQYCRLQHCFEVGMSKESVRND the figure was -0.027 ± 0.12; with YKPCFVCQDKSSGYHYGVSACEGCKGFFRRSIQKNMIYTCHRDKNCVINKVTRNRCQYCRLQECFEVGMSKESVRND, -0.588 ± 0.087; with YKPCFVCQDKSSGYHYGVSACEGCKGFFRRSIQKNMIYTCHRDKNCVINKVTRNRCQYCRLQCCFEVGMSKESVRND, -0.641 ± 0.18. With YKPCFVCQDKSSGYHYGVSACEGCKGFFRRSIQKNMIYTCHRDKNCVINKVTRNRCQYCRLQACFEVGMSKESVRND, the abundance fitness was -0.306 ± 0.06. With YKPCFVCQDKSSGYHYGVSACEGCKGFFRRSIQKNMIYTCHRDKNCVINKVTRNRCQYCRLQICFEVGMSKESVRND the figure was -0.321 ± 0.13; with YKPCFVCQDKSSGYHYGVSACEGCKGFFRRSIQKNMIYTCHRDKNCVINKVTRNRCQYCRLQDCFEVGMSKESVRND, -0.413 ± 0.12.

Take YKPCFVCQDKSSGYHYGVSACEGCKGFFRRSIQKNMIYTCHRDKNCVINKVTRNRCQYCRLEKCFEVGMSKESVRND: the abundance fitness was 0.017 ± 0.059.

Take YKPCFVCQDKSSGYHYGVSACEGCKGFFRRSIQKNMIYTCHRDKNCVINKVTRNRCQYCRLWKCFEVGMSKESVRND: the abundance fitness was -0.203 ± 0.047. With YKPCFVCQDKSSGYHYGVSACEGCKGFFRRSIQKNMIYTCHRDKNCVINKVTRNRCQYCRLHKCFEVGMSKESVRND the figure was 0.123 ± 0.081; with YKPCFVCQDKSSGYHYGVSACEGCKGFFRRSIQKNMIYTCHRDKNCVINKVTRNRCQYCRLNKCFEVGMSKESVRND, -0.056 ± 0.087; with YKPCFVCQDKSSGYHYGVSACEGCKGFFRRSIQKNMIYTCHRDKNCVINKVTRNRCQYCRLMKCFEVGMSKESVRND, -0.033 ± 0.051. In the case of YKPCFVCQDKSSGYHYGVSACEGCKGFFRRSIQKNMIYTCHRDKNCVINKVTRNRCQYCRLVKCFEVGMSKESVRND, the abundance fitness came to 0.026 ± 0.034. The value for YKPCFVCQDKSSGYHYGVSACEGCKGFFRRSIQKNMIYTCHRDKNCVINKVTRNRCQYCRLIKCFEVGMSKESVRND was 0.018 ± 0.074.

Take YKPCFVCQDKSSGYHYGVSACEGCKGFFRRSIQKNMIYTCHRDKNCVINKVTRNRCQYCRLKKCFEVGMSKESVRND: the abundance fitness is 0.125 ± 0.051.

Consider YKPCFVCQDKSSGYHYGVSACEGCKGFFRRSIQKNMIYTCHRDKNCVINKVTRNRCQYCRLGKCFEVGMSKESVRND, for which the abundance fitness was -0.317 ± 0.05. The value for YKPCFVCQDKSSGYHYGVSACEGCKGFFRRSIQKNMIYTCHRDKNCVINKVTRNRCQYCRLCKCFEVGMSKESVRND was -0.268 ± 0.072.

For the variant YKPCFVCQDKSSGYHYGVSACEGCKGFFRRSIQKNMIYTCHRDKNCVINKVTRNRCQYCRLSKCFEVGMSKESVRND, the abundance fitness was determined as 0.012 ± 0.041. As to YKPCFVCQDKSSGYHYGVSACEGCKGFFRRSIQKNMIYTCHRDKNCVINKVTRNRCQYCRLTKCFEVGMSKESVRND, the abundance fitness was -0.004 ± 0.061. The value for YKPCFVCQDKSSGYHYGVSACEGCKGFFRRSIQKNMIYTCHRDKNCVINKVTRNRCQYCRLDKCFEVGMSKESVRND was -0.107 ± 0.057.

With YKPCFVCQDKSSGYHYGVSACEGCKGFFRRSIQKNMIYTCHRDKNCVINKVTRNRCQYCRLAKCFEVGMSKESVRND, the abundance fitness is 0.043 ± 0.045. The value for YKPCFVCQDKSSGYHYGVSACEGCKGFFRRSIQKNMIYTCHRDKNCVINKVTRNRCQYCRLLKCFEVGMSKESVRND was -0.042 ± 0.039; that for YKPCFVCQDKSSGYHYGVSACEGCKGFFRRSIQKNMIYTCHRDKNCVINKVTRNRCQYCRLPKCFEVGMSKESVRND was -0.814 ± 0.33; that for YKPCFVCQDKSSGYHYGVSACEGCKGFFRRSIQKNMIYTCHRDKNCVINKVTRNRCQYLRLQKCFEVGMSKESVRND was -0.84 ± 0.12. With YKPCFVCQDKSSGYHYGVSACEGCKGFFRRSIQKNMIYTCHRDKNCVINKVTRNRCQYSRLQKCFEVGMSKESVRND the figure was -0.294 ± 0.084. With YKPCFVCQDKSSGYHYGVSACEGCKGFFRRSIQKNMIYTCHRDKNCVINKVTRNRCQYWRLQKCFEVGMSKESVRND the figure was -0.823 ± 0.21; with YKPCFVCQDKSSGYHYGVSACEGCKGFFRRSIQKNMIYTCHRDKNCVINKVTRNRCQYPRLQKCFEVGMSKESVRND, -0.777 ± 0.18; with YKPCFVCQDKSSGYHYGVSACEGCKGFFRRSIQKNMIYTCHRDKNCVINKVTRNRCQYIRLQKCFEVGMSKESVRND, -0.494 ± 0.23. With YKPCFVCQDKSSGYHYGVSACEGCKGFFRRSIQKNMIYTCHRDKNCVINKVTRNRCQYQRLQKCFEVGMSKESVRND, the abundance fitness is -0.983 ± 0.3. In the case of YKPCFVCQDKSSGYHYGVSACEGCKGFFRRSIQKNMIYTCHRDKNCVINKVTRNRCQYYRLQKCFEVGMSKESVRND, the abundance fitness is -0.831 ± 0.33. With YKPCFVCQDKSSGYHYGVSACEGCKGFFRRSIQKNMIYTCHRDKNCVINKVTRNRCQYTRLQKCFEVGMSKESVRND the figure was -0.499 ± 0.15; with YKPCFVCQDKSSGYHYGVSACEGCKGFFRRSIQKNMIYTCHRDKNCVINKVTRNRCQYVRLQKCFEVGMSKESVRND, -0.941 ± 0.14. The value for YKPCFVCQDKSSGYHYGVSACEGCKGFFRRSIQKNMIYTCHRDKNCVINKVTRNRCQYHRLQKCFEVGMSKESVRND was -0.817 ± 0.2; that for YKPCFVCQDKSSGYHYGVSACEGCKGFFRRSIQKNMIYTCHRDKNCVINKVTRNRCQYRRLQKCFEVGMSKESVRND was -0.869 ± 0.15. With YKPCFVCQDKSSGYHYGVSACEGCKGFFRRSIQKNMIYTCHRDKNCVINKVTRNRCQYMRLQKCFEVGMSKESVRND the figure was -0.732 ± 0.15; with YKPCFVCQDKSSGYHYGVSACEGCKGFFRRSIQKNMIYTCHRDKNCVINKVTRNRCQYKRLQKCFEVGMSKESVRND, -0.998 ± 0.28. With YKPCFVCQDKSSGYHYGVSACEGCKGFFRRSIQKNMIYTCHRDKNCVINKVTRNRCQYNRLQKCFEVGMSKESVRND, the abundance fitness was -0.834 ± 0.33.

As to YKPCFVCQDKSSGYHYGVSACEGCKGFFRRSIQKNMIYTCHRDKNCVINKVTRNRCQYCWLQKCFEVGMSKESVRND, the abundance fitness came to 0.114 ± 0.044.

With YKPCFVCQDKSSGYHYGVSACEGCKGFFRRSIQKNMIYTCHRDKNCVINKVTRNRCQYCELQKCFEVGMSKESVRND, the abundance fitness was -0.598 ± 0.14.

Turning to YKPCFVCQDKSSGYHYGVSACEGCKGFFRRSIQKNMIYTCHRDKNCVINKVTRNRCQYCQLQKCFEVGMSKESVRND, the abundance fitness is -0.003 ± 0.052.

Consider YKPCFVCQDKSSGYHYGVSACEGCKGFFRRSIQKNMIYTCHRDKNCVINKVTRNRCQYCVLQKCFEVGMSKESVRND, for which the abundance fitness was -0.369 ± 0.052.

YKPCFVCQDKSSGYHYGVSACEGCKGFFRRSIQKNMIYTCHRDKNCVINKVTRNRCQYCGLQKCFEVGMSKESVRND: the abundance fitness was -0.491 ± 0.069. The value for YKPCFVCQDKSSGYHYGVSACEGCKGFFRRSIQKNMIYTCHRDKNCVINKVTRNRCQYCKLQKCFEVGMSKESVRND was -0.039 ± 0.052.

As to YKPCFVCQDKSSGYHYGVSACEGCKGFFRRSIQKNMIYTCHRDKNCVINKVTRNRCQYCTLQKCFEVGMSKESVRND, the abundance fitness is -0.001 ± 0.052. With YKPCFVCQDKSSGYHYGVSACEGCKGFFRRSIQKNMIYTCHRDKNCVINKVTRNRCQYCSLQKCFEVGMSKESVRND the figure was -0.583 ± 0.08; with YKPCFVCQDKSSGYHYGVSACEGCKGFFRRSIQKNMIYTCHRDKNCVINKVTRNRCQYCPLQKCFEVGMSKESVRND, -0.722 ± 0.14.

In the case of YKPCFVCQDKSSGYHYGVSACEGCKGFFRRSIQKNMIYTCHRDKNCVINKVTRNRCQYCYLQKCFEVGMSKESVRND, the abundance fitness was -0.002 ± 0.062. With YKPCFVCQDKSSGYHYGVSACEGCKGFFRRSIQKNMIYTCHRDKNCVINKVTRNRCQYCDLQKCFEVGMSKESVRND the figure was -0.901 ± 0.21; with YKPCFVCQDKSSGYHYGVSACEGCKGFFRRSIQKNMIYTCHRDKNCVINKVTRNRCQYCNLQKCFEVGMSKESVRND, -0.845 ± 0.22. With YKPCFVCQDKSSGYHYGVSACEGCKGFFRRSIQKNMIYTCHRDKNCVINKVTRNRCQYCLLQKCFEVGMSKESVRND the figure was 0.21 ± 0.035. In the case of YKPCFVCQDKSSGYHYGVSACEGCKGFFRRSIQKNMIYTCHRDKNCVINKVTRNRCQYCILQKCFEVGMSKESVRND, the abundance fitness is -0.653 ± 0.16. With YKPCFVCQDKSSGYHYGVSACEGCKGFFRRSIQKNMIYTCHRDKNCVINKVTRNRCQYCMLQKCFEVGMSKESVRND the figure was 0.199 ± 0.038; with YKPCFVCQDKSSGYHYGVSACEGCKGFFRRSIQKNMIYTCHRDKNCVINKVTRNRCQYCCLQKCFEVGMSKESVRND, -0.155 ± 0.065.
